Measurements as given in patent US20250296994A1 (SYSMEX, published 2025).

Experiments:
human Crtac1A = molecular target: T1, human Crtac1A (human, UniProt Q9NQ79 28-661); assay: immunoprecipitation from human CSF and serum, then immunoblotting (Wes)
T1 construct: Recombinant protein (IB control sample) or native protein in human CSF and serum; also called rCrtac1A
T1 sequence: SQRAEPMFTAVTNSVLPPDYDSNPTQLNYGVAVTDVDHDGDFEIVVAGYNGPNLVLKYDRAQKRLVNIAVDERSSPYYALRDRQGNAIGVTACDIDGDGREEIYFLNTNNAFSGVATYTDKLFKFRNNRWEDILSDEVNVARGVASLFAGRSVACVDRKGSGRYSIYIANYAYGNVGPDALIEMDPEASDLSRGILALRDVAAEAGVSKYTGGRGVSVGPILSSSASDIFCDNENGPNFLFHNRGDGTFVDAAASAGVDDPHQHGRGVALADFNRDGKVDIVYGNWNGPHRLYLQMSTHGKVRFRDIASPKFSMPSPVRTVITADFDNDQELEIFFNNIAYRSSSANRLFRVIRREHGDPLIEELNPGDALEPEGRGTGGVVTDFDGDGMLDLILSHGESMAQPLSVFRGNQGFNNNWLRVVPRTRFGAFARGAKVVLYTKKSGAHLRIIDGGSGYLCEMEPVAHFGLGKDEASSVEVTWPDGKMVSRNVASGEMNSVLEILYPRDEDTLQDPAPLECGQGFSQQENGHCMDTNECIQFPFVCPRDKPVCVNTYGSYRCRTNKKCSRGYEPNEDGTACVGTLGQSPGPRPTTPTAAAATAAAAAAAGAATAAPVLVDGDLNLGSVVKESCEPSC
Protocol: For human CSF and human serum, immunoprecipitation using a monoclonal antibody purified from the culture supernatant of hybridomas of clones 1B4 and 15C2 was performed, and IB analysis by Wes was performed. For comparison, immunoprecipitation (IP) using an anti-hCrtac1 antibody (RD) and IB analysis using an anti-rat LOTUS antibody (ITM, 45-12C) were performed.
As a sample, CSF (300 μL) and serum (500 μL) were used per antibody. Each sample and protein G sepharose were mixed and rotated at 4° C. for 1 hour to remove contaminants that non-specifically bind to protein G from each sample in advance. Protein G solid phase-treated magnetic particles (60 μL, Veritas, Dynabeads (registered trademark) Protein G) were dispensed into 1.5-mL tubes, and washed twice with dilution buffer III (500 μL, 0.02% Tween (registered trademark) 20/PBS (pH 7.4)). Magnetic collection was performed to remove the supernatant, and each antibody (24 μg) and the above dilution buffer III (200 μL) were added to the magnetic particles. The tube was stirred at room temperature for 1 hour, and then collected to remove the supernatant. The magnetic particles were washed five times with the above dilution buffer III (300 μL), and then collected to remove supernatant. Each sample from which impurities were removed was added to the magnetic particles, and the tube was stirred at room temperature for 5 hours. […]

[1] = molecular target: T2, recombinant Crtac1B fragment #6 (human, UniProt Q9NQ79 28-606); assay: antigen immobilized ELISA, hybridoma culture supernatant, color development at 655 nm same as plate without antigen
T2 construct: also called fCrtac1B (1-607)
T2 sequence: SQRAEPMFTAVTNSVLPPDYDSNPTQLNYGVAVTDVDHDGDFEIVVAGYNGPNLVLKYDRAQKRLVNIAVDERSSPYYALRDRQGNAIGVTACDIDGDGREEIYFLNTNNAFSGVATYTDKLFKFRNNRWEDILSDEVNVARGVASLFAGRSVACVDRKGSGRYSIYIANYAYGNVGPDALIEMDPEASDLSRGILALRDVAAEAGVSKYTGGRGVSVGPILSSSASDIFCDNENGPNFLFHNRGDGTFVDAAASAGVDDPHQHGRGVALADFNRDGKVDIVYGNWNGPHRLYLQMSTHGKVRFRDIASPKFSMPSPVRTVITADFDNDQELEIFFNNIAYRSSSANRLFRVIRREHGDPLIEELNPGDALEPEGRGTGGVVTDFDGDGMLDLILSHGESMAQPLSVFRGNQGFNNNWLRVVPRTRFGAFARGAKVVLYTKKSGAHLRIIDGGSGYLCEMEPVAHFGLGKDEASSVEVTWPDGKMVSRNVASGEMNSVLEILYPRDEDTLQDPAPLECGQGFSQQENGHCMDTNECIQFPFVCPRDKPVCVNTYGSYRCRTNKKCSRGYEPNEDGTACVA
Protocol: (§1) A positive antigen (50 μL) and a negative control (50 μL) were added to each well of a 96 well plate, respectively. Then, the plate was incubated at 4° C. overnight, and the positive antigen and the negative control were immobilized in the well to obtain an antigen immobilized plate. Each well was washed twice with a washing solution (250 μL, 0.05% Tween (registered trademark) 20/20 mM potassium phosphate buffer (pH 7.4), 150 mM NaCl). To each well was added a blocking buffer (250 μL, 5% skim milk/20 mM potassium phosphate buffer (pH 7.4), 150 mM NaCl), and blocked at room temperature for 90 minutes. Culture supernatant (50 μL) of each hybridoma selected by primary screening was added to each well, and the cells were incubated at 37° C. for 1 hour. Each well was washed three times with a washing solution (250 μL). The HRP-labeled anti-mouse IgG antibody (MBL, product number 330) was diluted 1:1,000 with dilution buffer II (1% skim milk/20 mM potassium phosphate buffer (pH 7.4), 150 mM NaCl). A solution (50 μL) of this labeled antibody was added to each well, and the well was incubated at 37° C. for 1 hour. Each well was washed five times with a washing solution (250 μL). Chemical chromogenic substrate solutions (Bio-Rad, TMB Peroxidase EIA Substrate Kit) were added to respective wells at 50 μL, and the plate was allowed to stand at room temperature under shading for 30 minutes. The plate was set in a microplate reader (Thermo Fisher Scientific, Varioskan (registered trademark) Flash), and the color development intensity at 655 nm was measured for each well.
(§2) Reactivity of the monoclonal antibody contained in the culture supernatant of the hybridomas of clones 1B4 and 15C2 to the antigen was confirmed by ELISA using the 7 recombinant Crtac1B fragments described above. A specific operation was the same as that of the antigen immobilized ELISA method of Example 1. For comparison, ELISA was performed in the same manner using a 96 well plate in which no antigen was immobilized.
(§3) In addition, as to these monoclonal antibodies, the color development intensity when the recombinant Crtac1B fragments of #6 and #7 were used was substantially the same as that when a plate without immobilizing the antigen was used.

[2] = molecular target: T3, recombinant Crtac1B fragment #7 (negative control) (human, UniProt Q9NQ79 28-606); assay: as above
T3 construct: also called fCrtac1B (1-606)
T3 sequence: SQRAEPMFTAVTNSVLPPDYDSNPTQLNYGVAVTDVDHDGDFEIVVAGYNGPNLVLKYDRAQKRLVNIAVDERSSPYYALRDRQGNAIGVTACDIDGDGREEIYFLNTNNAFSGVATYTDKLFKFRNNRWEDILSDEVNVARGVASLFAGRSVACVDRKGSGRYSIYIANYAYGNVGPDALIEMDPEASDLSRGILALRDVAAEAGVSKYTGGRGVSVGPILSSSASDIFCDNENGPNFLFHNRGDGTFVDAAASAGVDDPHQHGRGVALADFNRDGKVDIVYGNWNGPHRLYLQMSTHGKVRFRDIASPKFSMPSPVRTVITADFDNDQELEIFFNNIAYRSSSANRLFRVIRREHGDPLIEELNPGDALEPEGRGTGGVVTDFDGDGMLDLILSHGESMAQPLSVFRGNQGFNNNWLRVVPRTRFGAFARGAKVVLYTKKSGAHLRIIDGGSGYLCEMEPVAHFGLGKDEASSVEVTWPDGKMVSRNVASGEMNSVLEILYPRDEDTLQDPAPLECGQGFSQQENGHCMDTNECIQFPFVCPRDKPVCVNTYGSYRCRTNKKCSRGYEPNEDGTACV
Protocol: as §1, §2, §3

Measured: binding result

B1: monoclonal antibody derived from the hybridoma of clone 1B4 (antibody, mouse IgG1, kappa, V domains shown)
VH: EVQLQQFGAELVKPGASVKISCKASGYTFTDYNMDWVKQSHGKSLEWIGDINPNYDSSSYNQKFKGKATLTVDKSSSTAYMELRSLTSEDTAVYYCTRSGGTYWGQGTLVTVSA
VL: DIQMNQSPSSLSASLGDTITITCHASQNINVWLSWYQQKPGNIPKLLIYKASNLHTGVPSRFSGSGSGTGFSLTISSLQPEDIATYYCQQAQSYPRTFGGGTKLEIKR
notes: It is kept apart because the two clones were tested separately; Mouse IgG1; Leader ranges were derived as for m1
no binding: all assays above
